According to patent US20250263490A1 (VIB VZW, published 2025):

B1: anti-CI-M6PR VHH5 (VHH)
VHH: QVQLQESGGGLVQAGGSLKLSCAAAGRTFSRLAMGWFRQAPGKEREFVAAISENGDSIHYSDSVKGRFAVSRDNAKNTVYLQMNSLKPEDTAIYYCAADRAAYYCSGSGCYPSRAPAAASYDYWGQGTQVTVSS
notes: His6-tagged; made in Pichia pastoris, later also in E. coli WK6
B2: anti-CI-M6PR VHH3 (VHH)
VHH: QVQLQESGGGLVQPGGSLRLSCAAFGLNFKNFDMIWFRQAPGEERDIVAAISSSSSTIWYEDSVKGRFTISRDNAKNTVYLQMNSLKPEDTAVYYCAAALTSWRRPDYWGQGTQVTVSS
notes: His6-tagged; made in Pichia pastoris
B3: anti-CI-M6PR VHH11 (VHH)
VHH: QVQLQESGGGLVQAGDSLKLSCTASGPTFSEITGGWFRQVPGKEREFVASISSTGITTYYTDSVKGRFTVSRDNAKNTMYLQMNSLKPEDTGVYYCAARSTSRSIAITVGYDYWGQGTQVTVSS
notes: as for B2
B4: anti-CI-M6PR VHH10 (VHH)
VHH: QVQLQESGGGSVQAGGSLRLSCAPAGRTFSRIRMGWFRQAPGKEREFVAAISSGGLSYYADSMKGRFTISRDNAKNTVLLQMNSLEPDDTAVYYCAAVLNDYIDDYVARNPTLYDYWGQGTQVTVSS
notes: as for B2
B5: anti-CI-M6PR VHH8 (VHH)
VHH: QVQLQESGGGLVQAGGSLRLSCEASGRTFNTYNWGWFRQAPGKEREFVAAIRWSSSKTSYADSVKGRFTISRDNAKNTIYLQMNSLKPEDTAVYYCAASIVDFTTNPSHFGSWGQGTQVTVSS
notes: His6-tagged (Pichia pastoris)
B6: anti-CI-M6PR VHH1 (VHH)
VHH: QVQLQESGGGLVQPGGSLRLSCVASGFTFDRYWMNWLRQIPGKEIEWVSTINTGGTGTYYDDSVKGRFSISRDDAKNTLYLTMNSLKTEDTAVYYCARGATYYRGNSAIRGQGTQVTVSS
notes: as for B1
B7: anti-CI-M6PR VHH7 (VHH)
VHH: QVQLQESGGGLVQPGGSLRLSCAASGIIFSDNRMDWYRQAPGKQREWVATLASYGWKTYADSVKGRFTISRDNTKNTVYLRMNSLKPEDTAVYYCKASSPVLNDIWGQGTQVTVSS
notes: His6-tagged (Pichia pastoris)
B8: anti-CI-M6PR VHH9 (VHH)
VHH: QVQLQESGGGLVQAGGSLRLSCAASGTILSIKTMGWYRQAPGKEREWVATITSSSIPMYADSVKGRFTISRDDAKNTVYLQMNSLKPEDTGVYYCNAPWTDYWGQGTQVTVSS
notes: as for B2
B9: anti-CI-M6PR VHH6 (VHH)
VHH: QVQLQESGGGLVQAGGSLRLSCAVSGSISSIGGMGWFRQAPGKQREFVAVILNNSGMTSYADSVKGRFTISRGNSKNTMYLQMNSLKPEDTAVYYCNYSGYWGQGTQVTVSS
notes: His6-tagged; made in E. coli
B10: anti-CI-M6PR VHH4 (VHH)
VHH: QVQLQESGGGLVQAGGSLRLSCAASGRTFSNYVMGWFRQAPGKEREFVGSISQGGKMTYYPDSVKGRFTISRDNAKNTMYLQMDGLKPEDTAVYYCAVSRGYPMVRVSEVDYWGQGTQVTVSS
notes: as for B2

Columns and labels:
[1] = target: T1, recombinant human domain 1-3His6 of the cation-independent mannose-6-phosphate receptor (human, UniProt P11717 41-467); experiment: BLI exp 1, dissoc pH 7
T1 construct: Biotinylated (NHS-PEG4-biotin) for BLI; Glycosylated; also called hDom1-3His6; hCI-M6PRD1-D3
Experimental: (§1) For each of the 11 anti-CI-M6PR VHHs, a biolayer interferometry (BLI) experiment was performed in which the hDom₁₋₃His₆ was biotinylated and coupled to streptavidin biosensor tips. Afterwards, the tips were incubated with serially diluted VHHs during the association phase and dissociation was performed at pH 7.4. Similarly, dissociation was performed at pH 7.0, pH 6.0 and pH 5.0 as well after regeneration of the biosensor tips. […] The anti-CI-M6PR antibody (clone 2G11) and GBP were used as positive and negative controls, respectively.
(§2) Analysis of the binding kinetics was performed using an Octet Red96 (FortéBio) device with Streptavidin SA Biosensor tips (VWR 733-2145). Therefore, 1 mL of human domain₁₋₃His₆ (0.5 mg/mL in 50 mM MES, 150 mM NaCl, pH 6.5) was incubated at room temperature for 30 minutes with EZ-Link™ NHS-PEG4-Biotin (1 mg) (Thermo Fischer A39259) and NaHCO₃ (100 mM). Biotinylated human domain₁₋₃His₆ was purified using a Zeba spin desalting Column™ (7K MWCO, 2 mL, Thermo Fischer 89890) and 1 μg/mL was used for immobilization on the Streptavidin SA Biosensor tips. The loaded tips were dipped into a particular anti-CI-M6PR VHH solution, serially diluted in kinetics buffer (0.2M NaH₂PO₄, 0.1M Na⁺ citrate, 0.01% BSA, 0.002% Tween20, pH 7.4). This was followed by dissociation of the particular anti-CI-M6PR VHH in kinetics buffer of pH 7.4, followed by regeneration in Glycine (10 mM, pH 3) and neutralisation. Same cycle was repeated but the dissociation was performed at pH 7.0, 6.0, 5.0, 4.5 and 4.0. A reference well and reference sensors were subtracted from ligand sensors afterwards and Savitsky-Golay filtering was applied on the data. Fitting of the data was performed using a 1:1 model, grouped per pH of dissociation.

[2] = target: T1, recombinant human domain 1-3His6 of the …; experiment: BLI exp 2, dissoc pH 6
Experimental: as §1
Analysis of the binding kinetics was performed using an Octet Red96 (FortéBio) device with Streptavidin SA Biosensor tips (VWR, 733-2145). To this end, 1 mL of hCI-M6PR_D1-D3 (0.5 mg/mL in 50 mM MES, 150 mM NaCl, pH 6.5) was incubated at room temperature for 30 minutes with a two-fold molar excesses of EZ-Link™ NHS-PEG₄-Biotin (Thermo Fischer, A39259) and NaHCO₃ (100 mM, pH 8.3). Biotinylated hCIMPR_D1-D3 was purified using a Zeba spin desalting column (Thermo Fischer, 89890) and protein concentration was calculated by measuring the absorbance at 280 nm (extinction coefficient 50320 M¹ cm⁻¹). Two-fold biotin-labelled antigen was loaded on the tips (2.5 μg/mL) and subsequently dipped into a particular anti-CI-M6PR VHH-containing solution (ranging from 0-100 nM). Serial VHH dilutions were made in kinetics buffer (0.2 M Na₂HPO₄, 0.1 M Na⁺ citrate, 0.01% BSA, 0.002% Tween20, pH 7.4). After association (100 sec), dissociation was conducted (500 sec) for each anti-CI-M6PR VHH in the kinetics buffer, followed by biosensor regeneration in glycine (10 mM, pH 3) and neutralisation. The same cycle was repeated with dissociation performed in kinetics buffer of pH 7.0, 6.5, 6.0, 5.5, and 5.0.
A reference well and reference sensors were subtracted from ligand sensors afterwards and Savitsky-Golay filtering was applied on the data. Fitting of the data was performed using a 1:1 model, grouped per dissociation pH.

[3] = target: T1, recombinant human domain 1-3His6 of the …; experiment: BLI exp 2, dissoc pH 7.4
Experimental: as §1, §2

[4] = target: T1, recombinant human domain 1-3His6 of the …; experiment: BLI exp 2, dissoc pH 7
[5] = target: T2, recombinant mouse domain 1-3His6 of CI-M6PR (mouse, UniProt Q07113 36-418); experiment: ELISA: coated mouse CI-M6PR Domain 1-3His6, serially diluted VHH, anti-VHH-HRP, TMB, Abs 450 nm; sigmoidal regression [table at the right]
T2 construct: Genbank NM_010515.2); Range includes the signal peptide; also called mDom1-3His6; mCI-M6PRD1-D3
Experimental: FIGS. 5A-5B. Affinity of anti-CI-M6PR VHHs for recombinant mouse CI-M6PR Domain 1-3His₆ determined by ELISA. (FIG. 5A) Measurement for each of the 11 anti-CI-M6PR VHHs in serial dilution binding to the coated mouse antigen. Detection was performed using an anti-VHH antibody coupled to HRP, and measured as the absorbance of the TMB substrate at 450 nm, correlating to the amount of bound VHH as plotted at the Y-axis. The Log₁₀ concentrations of the serially diluted VHHs were plotted at the X-axis.
To evaluate the cross-reactivity of the anti-CI-M6PR nanobodies between the human and mouse CI-M6PR domain 1-3His₆ antigen, ELISA was performed with the eleven serially diluted anti-CI-M6PR nanobodies. […] By performing sigmoidal regression on the derived absorbance curves, half-maximal effective concentration (EC₅₀) values of each VHH were acquired, representing the required concentration to occupy 50% of the coated antigen. As a negative control, GBP was included in the assay.

T2 sequence (Q07113 other isoform, or with tags, fused parts or gaps): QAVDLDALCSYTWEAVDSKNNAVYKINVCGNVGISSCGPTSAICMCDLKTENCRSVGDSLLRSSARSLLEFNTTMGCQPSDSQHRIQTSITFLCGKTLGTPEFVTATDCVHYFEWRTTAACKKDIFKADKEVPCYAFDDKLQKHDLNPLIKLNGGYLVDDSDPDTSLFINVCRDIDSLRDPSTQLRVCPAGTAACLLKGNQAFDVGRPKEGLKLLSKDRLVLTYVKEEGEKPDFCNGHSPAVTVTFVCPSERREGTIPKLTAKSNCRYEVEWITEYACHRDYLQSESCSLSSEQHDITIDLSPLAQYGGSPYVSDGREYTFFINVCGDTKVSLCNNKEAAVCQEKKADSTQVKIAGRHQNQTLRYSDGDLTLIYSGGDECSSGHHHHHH

Row | Binder | Kd [1] [nM] | koff [1] [s⁻¹] | kon [1] [M⁻¹ s⁻¹] | koff [2] [s⁻¹] | kon [2] [M⁻¹ s⁻¹] | koff [3] [s⁻¹] | kon [3] [M⁻¹ s⁻¹] | koff [4] [s⁻¹] | kon [4] [M⁻¹ s⁻¹] | EC50 [5] [nM] | Kd [3] [nM]
1 | B1 | 0.346 | 0.000412 | 1.19e+06 | 0.00029 | 1.7e+06 | 0.00018 | 1.8e+06 | 0.00019 | 1.5e+06 | 562 | –
2 | B2 | 0.269 | 0.000604 | 2.24e+06 | 0.000499 | 40600 | 0.000345 | 48600 | 0.000844 | 53000 | 670 | 7.09
3 | B3 | 20.3 | 0.00394 | 194000 | 0.00665 | 195000 | 0.00391 | 76700 | 0.00394 | 194000 | 330 | 51
4 | B4 | – | 0.00148 | 99300 | 0.00205 | 39100 | 0.00177 | 38100 | 0.00148 | 99300 | 1620 | 46.5
5 | B5 | 6.45 | 0.00368 | 570000 | 0.0012 | 1.3e+08 | 0.00065 | – | 0.000976 | 404000 | 595 | –
6 | B6 | 6.05 | ~0.00756 | 1.25e+06 | 0.021 | 560000 | 0.0099 | 1e+06 | 0.0021 | 1.5e+06 | 355 | ~11.2
7 | B7 | 8.08 | 0.00698 | 864000 | 0.028 | 40000 | 0.0118 | 1.3e+06 | 0.013 | 130000 | – | 9.08
8 | B8 | 0.476 | 0.00051 | 1.07e+06 | 0.000122 | 615000 | 0.000444 | 1.57e+06 | 0.00051 | 379000 | 2750 | 0.282
9 | B9 | 2.65 | 0.00227 | 856000 | 0.00227 | 718000 | 0.00352 | 743000 | 0.00242 | 392000 | 9750 | 4.74
10 | B10 | 2.2 | 0.00126 | 572000 | 0.00126 | 572000 | 0.00133 | 571000 | 0.00101 | 316000 | 873 | 2.34
